Test results reported in US5635597A (Affymax Technologies, N.V., priority 1994, dated 1997).
Values belong to the compound of their own block, whether it stands above or below them. Where a SMILES comes first, the peptide text is derived from it.

Tests used:
IL-2Rαβ heterodimer = target: T1, IL-2Rαβ heterodimer (Homo sapiens, UniProt P01589+P14784); assay: pVIII 10-mer phage screen / ELISA against IL-2Rαβ heterodimer; assay type: binding; conditions: pVIII-bound 10-mers on phage
T1 construct: was produced in recombinant host cells in a truncated form; made in house; host or cells: recombinant host cells (baculovirus system or PIG-tailed CHO cells named as options)
T1 sequence (P01589 22-240 limits assumed): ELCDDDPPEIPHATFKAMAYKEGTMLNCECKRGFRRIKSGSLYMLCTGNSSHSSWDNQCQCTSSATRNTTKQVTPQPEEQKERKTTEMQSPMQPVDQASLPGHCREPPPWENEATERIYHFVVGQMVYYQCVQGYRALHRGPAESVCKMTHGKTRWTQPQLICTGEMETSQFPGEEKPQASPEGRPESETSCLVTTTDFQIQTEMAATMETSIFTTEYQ
T1 sequence (P14784 27-240 limits assumed): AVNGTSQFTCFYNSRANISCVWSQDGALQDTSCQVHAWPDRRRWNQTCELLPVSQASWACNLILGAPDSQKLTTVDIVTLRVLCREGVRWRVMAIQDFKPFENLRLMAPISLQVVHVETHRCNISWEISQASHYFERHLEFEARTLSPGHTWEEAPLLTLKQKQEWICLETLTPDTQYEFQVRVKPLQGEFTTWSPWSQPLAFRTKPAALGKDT
Description: (§1) In the systems employed, the random peptides were presented either on the surface of a phage particle, as part of a fusion protein comprising either the pIII or the pVIII coat protein of a phage fd derivative (peptides on phage), or as a fusion protein with LacI bound to a plasmid (peptides on plasmids). The phage or plasmids, including the DNA encoding the peptides, were identified and isolated by an affinity enrichment process using immobilized IL-2Rα, IL-2Rβ, IL-2Rγ and the αβ heterodimer. The affinity enrichment process, sometimes called "panning", involves multiple rounds of incubating the phage or plasmids with immobilized receptor, collecting the phage or plasmids that bind to the receptor (along with the accompanying DNA), and producing more of the phage or plasmids (along with accompanying LacI-peptide fusion protein) collected.
(§2) After several rounds of affinity enrichment, the phage or plasmids and accompanying peptides were examined by ELISA to determine if the peptides bind specifically to the receptor. This assay was carried out in a manner similar to the procedures used in the affinity enrichment process, except that after removing unbound phage (or plasmids), the wells were typically treated with rabbit anti-phage antibody, then with alkaline phosphatase (AP)-conjugated goat anti-rabbit antibody, or with anti-LacI-AP, and then the amount of alkaline phosphatase in each well was determined by standard methods. By comparing test wells with control wells containing an unrelated receptor, one can determine whether a peptide binds to IL-2Rα (or IL-2Rβ, γ, αβ, or βγ) specifically. Peptides found to bind specifically to the receptor were then synthesized as the free peptide (no phage) and tested for binding against (1) immobilized soluble receptor, (2) receptor expressed on the surface of cells, (3) the heterotrimer form of the receptor (i.e., IL-2Rαβγ) expressed on the surface of cells and (4) the two heterodimers IL-2Rαβ and IL-2Rβγ.
The immobilized receptor used in the affinity enrichment and ELISA procedures was produced in recombinant host cells in a truncated form. This truncated receptor molecule can be produced in a variety of different forms and host cells. One useful form of receptor is constructed by expressing the protein as a soluble protein in baculovirus transformed host cells using standard methods; another useful form is constructed with a signal peptide for protein secretion and for glycophospholipid membrane anchor attachment. This form of anchor attachment is called "PIG-tailing;"see Caras and Weddell, 3 Mar. 1989, Science 243:1196-1198, and Lin et al., 10 Aug. 1990, Science 249:677-679, each of which is incorporated herein by reference. Using the PIG-tailing system, one can cleave the receptor from the surface of the cells expressing receptor (e.g., transformed Chinese hamster ovary (CHO) cells selected for high level expression of receptor with a cell sorter) with phospholipase C. The cleaved receptor still comprises a carboxy terminal sequence of amino acids, called the "HPAP tail", from the signal for membrane attachment and can be immobilized without further purification.
The recombinant receptor protein was immobilized by coating the wells of microtiter plates with an anti-HPAP tail antibody, blocking with bovine serum albumin (BSA) in PBS, and then binding recombinant, truncated receptor to the antibody. Using this procedure, one should perform the immobilization reaction in varying concentrations of the receptor to determine the optimum amount for a given preparation, because different preparations of recombinant protein often contain different amounts of the desired protein. […] Otherwise, unblocked antibody can bind undesired phage during the affinity enrichment procedure. […]

βγ [1] = target: T2, βγ (Homo sapiens, UniProt P14784+P31785); assay: Competition against phage-borne […], βγ heterodimer; assay type: binding; conditions: free peptide
T2 construct: was produced in recombinant host cells in a truncated form; made in house; host or cells: recombinant host cells (not fixed)
T2 sequence (P14784 27-240 limits assumed): T1 sequence (P14784 27-240 limits assumed)
T2 sequence (P31785 23-262 limits assumed): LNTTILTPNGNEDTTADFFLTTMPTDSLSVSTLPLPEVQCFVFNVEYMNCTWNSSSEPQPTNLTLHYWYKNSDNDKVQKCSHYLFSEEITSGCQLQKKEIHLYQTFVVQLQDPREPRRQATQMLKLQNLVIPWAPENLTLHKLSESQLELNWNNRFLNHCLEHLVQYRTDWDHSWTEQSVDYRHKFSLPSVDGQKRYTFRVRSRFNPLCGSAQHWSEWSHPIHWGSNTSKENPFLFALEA

immobilized IL-2Rβ = target: T3, immobilized IL-2Rβ (Homo sapiens, UniProt P14784); assay: pVIII 12-mer phage screen against immobilized IL-2Rβ; assay type: binding; conditions: pVIII-bound 12-mers
T3 construct: was produced in recombinant host cells in a truncated form; made in house; host or cells: recombinant host cells (baculovirus system or PIG-tailed CHO cells named as options)
T3 sequence (P14784 27-240 limits assumed): T1 sequence (P14784 27-240 limits assumed)
Description: as §1, §2

βγ [2] = target: T2, βγ; assay: Binding to βγ subunits
Experimental: as §2

αβ [3] = target: T4, αβ (Homo sapiens, UniProt P01589+P14784); assay: Binding to αβ subunits
T4 construct: was produced in recombinant host cells in a truncated form; made in house; host or cells: recombinant host cells (baculovirus system or PIG-tailed CHO cells named as options)
T4 sequence (P01589 22-240 limits assumed): T1 sequence (P01589 22-240 limits assumed)
T4 sequence (P14784 27-240 limits assumed): T1 sequence (P14784 27-240 limits assumed)
Experimental: as §2

β-subunit = target: T5, β-subunit (Homo sapiens, UniProt P14784); assay: Blocking of IL-2 binding to the β-subunit
T5 construct: was produced in recombinant host cells in a truncated form; made in house; host or cells: recombinant host cells (baculovirus system or PIG-tailed CHO cells named as options)
T5 sequence (P14784 27-240 limits assumed): T1 sequence (P14784 27-240 limits assumed)

αβ [4] = target: T4, αβ; assay: Competition against phage-borne […], αβ heterodimer; assay type: binding; conditions: free peptide
IL-2Rβ = target: T6, IL-2Rβ (Homo sapiens, UniProt P14784); assay: Colony lift procedure with tagged IL-2 receptors; assay type: binding
T6 construct: tag (kind not specified; detected enzymatically or on X-ray film)
T6 sequence (P14784 27-240 limits assumed): T1 sequence (P14784 27-240 limits assumed)
Description: Peptides specific for the IL-2Rα, β and γ subunits were also discovered using a "colony lift" procedure, wherein cells were infected with DNA encoding for random amino acid sequences as described above. The phage was then allowed to grow on arabinose media to induce expression of the encoded peptides. […] The filters were washed and dried, and the tagged colonies were detected enzymatically, or by exposure to X-ray film, to identify those receptors which bound to the immobilized peptide-expressing phage particles.
Sequences which bound to IL-2Rβ have the general sequence RDCSX81AX82 LGELC, wherein X81 is V, E or D; and X82 is V or A. Preferred sequences are […], […] (SEQ ID NO: ), and […] (SEQ ID NO: ).

IL-2Rα = target: T7, IL-2Rα (Homo sapiens, UniProt P01589); assay: Phage screen of αβ heterodimer in presence of β-specific peptides: specific binding to IL-2Rα
T7 construct: was produced in recombinant host cells in a truncated form; made in house; host or cells: recombinant host cells (baculovirus system or PIG-tailed CHO cells named as options)
T7 sequence (P01589 22-240 limits assumed): T1 sequence (P01589 22-240 limits assumed)
Experimental: as §2
The αβ heterodimer was screened in the presence of each of the following peptides, […] (SEQ ID NO:65), […] (SEQ ID NO:66), […] (SEQ ID NO:67), […] (SEQ ID NO:68) and […] (SEQ ID NO:69) under standard conditions. […]

immobilized IL-2Rα = target: T8, immobilized IL-2Rα (Homo sapiens, UniProt P01589); assay: Blocking of IL-2 binding to immobilized IL-2Rα
T8 construct: was produced in recombinant host cells in a truncated form; made in house; host or cells: recombinant host cells (baculovirus system or PIG-tailed CHO cells named as options)
T8 sequence (P01589 22-240 limits assumed): T1 sequence (P01589 22-240 limits assumed)

βγ-subunit [5] = target: T9, βγ-subunit (Homo sapiens, UniProt P14784+P31785); assay: Binding to βγ-subunit and competition with radiolabelled ligand
T9 construct: was produced in recombinant host cells in a truncated form; made in house; host or cells: recombinant host cells (not fixed)
T9 sequence (P14784 27-240 limits assumed): T1 sequence (P14784 27-240 limits assumed)
T9 sequence (P31785 23-262 limits assumed): T2 sequence (P31785 23-262 limits assumed)
Description: (§3) Random pVIII 10-mer and 11-mer libraries were also screened against immobilized IL-2Rγ monomer in a phage ELISA assay at high receptor density. […] These peptides also bound to the βγ-subunit and competed with radiolabelled ligand.

βγ-subunit [6] = target: T9, βγ-subunit; assay: Phage-ELISA competition with phage bearing peptides, βγ-subunit; assay type: binding; conditions: phage-ELISA assay
Description: (§4) After several rounds of affinity enrichment, the phage or plasmids and accompanying peptides were examined by ELISA to determine if the peptides bind specifically to the receptor. […] By comparing test wells with control wells containing an unrelated receptor, one can determine whether a peptide binds to IL-2Rα (or IL-2Rβ, γ, αβ, or βγ) specifically.
Random pVIII 10-mer and 11-mer libraries were also screened against immobilized IL-2Rγ monomer in a phage ELISA assay at high receptor density.

[7] = target: T10, immobilized IL-2Rγ monomer (Homo sapiens, UniProt P31785); assay: Phage ELISA against immobilized IL-2Rγ monomer; assay type: binding; conditions: high receptor density
T10 construct: was produced in recombinant host cells in a truncated form; made in house; host or cells: recombinant host cells (not fixed)
T10 sequence (P31785 23-262 limits assumed): T2 sequence (P31785 23-262 limits assumed)
Experimental: as §2, §3

α subunit = target: T11, α subunit (Homo sapiens, UniProt P01589); assay: Phage ELISA competition against phage-bearing […]; assay type: binding; conditions: phage ELISA format against phage-bearing FVRCTASGCV
T11 construct: was produced in recombinant host cells in a truncated form; made in house; host or cells: recombinant host cells (baculovirus system or PIG-tailed CHO cells named as options)
T11 sequence (P01589 22-240 limits assumed): T1 sequence (P01589 22-240 limits assumed)
Description: as §4

Compound: ARYGDVGSLV
binding to the αβ heterodimer (IL-2Rαβ heterodimer): bound | subunit specificity (IL-2Rαβ heterodimer): specific for the β subunit

Compound: RDCSVAVLGELC
binding to IL-2Rβ (IL-2Rβ): bound

Compound: EVICGTDGCW
specific binding to IL-2Rα (IL-2Rα): bound specifically | concentration at which IL-2 binding to immobilized IL-2Rα was blocked (immobilized IL-2Rα): 330 µM

Compound: ARSDYGLGAIWP
subunit specificity of clones (immobilized IL-2Rβ): β-specific

Compound: RDCSDAVLEGLC
binding to IL-2Rβ (IL-2Rβ): bound

Compound: FVRCTASGCV
competition for binding with respect to the α subunit (α subunit): compete for binding

Compound: RDCSEARLGELC
binding to IL-2Rβ (IL-2Rβ): bound

Further lines, results first:

binding to the αβ heterodimer (IL-2Rαβ heterodimer): bound | subunit specificity (IL-2Rαβ heterodimer): specific for the β subunit
Compound: RWGDVGDMVV

competition against phage-born MDCSEAVLGELC for binding (βγ [1]): competitive | subunit specificity of clones (immobilized IL-2Rβ): β-specific | binding to βγ subunits (βγ [2]): able to bind | binding to αβ subunits (αβ [3]): able to bind | blocking IL-2 binding to the β-subunit (β-subunit): capable of blocking IL-2 binding | competition against phage-born MDCSEAVLGELC for binding (αβ [4]): competitive
Compound: CSCC[C@H](N)C(=O)N[C@@H](CC(=O)O)C(=O)N[C@@H](CS)C(=O)N[C@@H](CO)C(=O)N[C@@H](CCC(=O)O)C(=O)N[C@@H](C)C(=O)N[C@H](C(=O)N[C@@H](CC(C)C)C(=O)NCC(=O)N[C@@H](CCC(=O)O)C(=O)N[C@@H](CC(C)C)C(=O)N[C@@H](CS)C(=O)O)C(C)C (H-MDCSEAVLGELC-OH; N-terminus and C-terminus assumed)

binding to the αβ heterodimer (IL-2Rαβ heterodimer): bound | subunit specificity (IL-2Rαβ heterodimer): specific for the β subunit
Compound: WDGPGLGEFF

binding to the αβ heterodimer (IL-2Rαβ heterodimer): bound | subunit specificity (IL-2Rαβ heterodimer): specific for the β subunit
Compound: SGCGRELDWC

subunit specificity of clones (immobilized IL-2Rβ): β-specific
Compound: RACRVMPCLPDL

specific binding to IL-2Rα (IL-2Rα): bound specifically | concentration at which IL-2 binding to immobilized IL-2Rα was blocked (immobilized IL-2Rα): 110 µM
Compound: SVRCSASGCV

binding to the βγ-subunit (βγ-subunit [5]): bound | competition with radiolabelled ligand (βγ-subunit [5]; βγ-subunit): competed | competition with phage bearing peptides in binding to the βγ-subunit (βγ-subunit [6]): compete | specific binding to IL-2Rγ [7]: bind to that subunit specifically
Compound: CGTQEACFGLL

binding to the αβ heterodimer (IL-2Rαβ heterodimer): bound | subunit specificity (IL-2Rαβ heterodimer): specific for the β subunit
Compound: RYGEVGDLLP

subunit specificity of clones (immobilized IL-2Rβ): β-specific
Compound: HCLDMGCTFPVW
